We go through 16 molecules from patent publication US20160031998A1 (CSL, published 2016).

T1: human G-CSFR expressed on cells (Homo sapiens, UniProt Q99062 25-836)
T1 sequence: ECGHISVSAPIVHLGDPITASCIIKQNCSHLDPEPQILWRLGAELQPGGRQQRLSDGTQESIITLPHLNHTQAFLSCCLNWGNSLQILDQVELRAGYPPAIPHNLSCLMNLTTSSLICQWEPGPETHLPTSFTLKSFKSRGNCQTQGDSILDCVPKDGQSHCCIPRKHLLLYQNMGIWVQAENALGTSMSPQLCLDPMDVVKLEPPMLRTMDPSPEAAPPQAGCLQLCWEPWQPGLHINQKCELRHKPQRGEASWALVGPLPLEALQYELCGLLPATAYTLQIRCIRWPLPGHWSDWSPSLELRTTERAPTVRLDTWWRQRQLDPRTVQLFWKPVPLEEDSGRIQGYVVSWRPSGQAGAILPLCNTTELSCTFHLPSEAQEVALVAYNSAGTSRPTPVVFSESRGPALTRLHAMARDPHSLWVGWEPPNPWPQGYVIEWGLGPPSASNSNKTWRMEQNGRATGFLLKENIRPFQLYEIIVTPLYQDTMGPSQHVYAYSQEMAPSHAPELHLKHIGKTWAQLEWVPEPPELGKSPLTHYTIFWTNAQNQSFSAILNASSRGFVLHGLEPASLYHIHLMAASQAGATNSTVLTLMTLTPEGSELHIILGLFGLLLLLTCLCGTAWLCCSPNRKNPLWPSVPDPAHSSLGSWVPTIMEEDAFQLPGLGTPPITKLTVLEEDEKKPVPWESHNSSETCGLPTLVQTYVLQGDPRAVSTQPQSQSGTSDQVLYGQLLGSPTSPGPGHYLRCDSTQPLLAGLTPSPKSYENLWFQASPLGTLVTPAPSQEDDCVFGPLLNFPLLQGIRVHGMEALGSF

T2: soluble hG-CSFR: amino acids 25-335 of Homo sapiens G-CSFR with mutations C78A, C163S and C228S and a … (Homo sapiens, UniProt Q99062 25-335)
T2 chain: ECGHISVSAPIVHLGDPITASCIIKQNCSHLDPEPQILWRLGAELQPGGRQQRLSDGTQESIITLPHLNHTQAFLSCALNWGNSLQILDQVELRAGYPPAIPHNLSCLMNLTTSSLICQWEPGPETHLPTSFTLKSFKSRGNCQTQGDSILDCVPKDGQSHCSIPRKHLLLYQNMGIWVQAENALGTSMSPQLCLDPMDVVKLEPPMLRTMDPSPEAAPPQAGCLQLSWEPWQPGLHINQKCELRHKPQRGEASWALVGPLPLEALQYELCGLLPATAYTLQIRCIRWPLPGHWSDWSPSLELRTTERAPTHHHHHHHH

B1: C1.2G-44 (antibody, human IgG4, V domains shown)
VH: EVQLLESGGGLVQPGGSLRLSCAASGFTFSLYWMGWVRQAPGKGLEWVSSISSSGGVTPYADSVKGRFTISRDNSKNTLYLQMNSLRAEDTAVYYCAKLGELGWFDPWGQGTLVTVSS
VL: DIQMTQSPSSLSASVGDRVTITCRASQGISSYLNWYQQKPGKAPKLLIYYASNLQNGVPSRFSGSGSGTDFTLTISSLQPEDFATYYCQQSYSYPQKFGGGTKVEIK
notes: HCDR3 wt (VH of C1.2G); also called antibody 44
B2: C1.2G-56 (antibody, human IgG4, V domains shown)
VH: EVQLLESGGGLVQPGGSLRLSCAASGFTFSLYWMGWVRQAPGKGLEWVSSISSSGGVTPYADSVKGRFTISRDNSKNTLYLQMNSLRAEDTAVYYCAKLGELGWFDPWGQGTLVTVSS
VL: DIQMTQSPSSLSASVGDRVTITCRASQGISSYLNWYQQKPGKAPKLLIYYASNLQNGVPSRFSGSGSGTDFTLTISSLQPEDFATYYCQQSYMYPIKFGGGTKVEIK
notes: HCDR3 wt (VH of C1.2G); also called antibody 56
B3: C1.2G-63 (antibody, human IgG4, V domains shown)
VH: EVQLLESGGGLVQPGGSLRLSCAASGFTFSLYWMGWVRQAPGKGLEWVSSISSSGGVTPYADSVKGRFTISRDNSKNTLYLQMNSLRAEDTAVYYCAKLGELGWFDPWGQGTLVTVSS
VL: DIQMTQSPSSLSASVGDRVTITCRASQGISSYLNWYQQKPGKAPKLLIYYASNLQNGVPSRFSGSGSGTDFTLTISSLQPEDFATYYCANSWGYPLTFGGGTKVEIK
notes: HCDR3 wt (VH of C1.2G); also called antibody 63
B4: C1.2G-975 (antibody, human IgG4, V domains shown)
VH: EVQLLESGGGLVQPGGSLRLSCAASGFTFSLYWMGWVRQAPGKGLEWVSSISSSGGVTPYADSVKGRFTISRDNSKNTLYLQMNSLRAEDTAVYYCAKLGELGQSMLWGQGTLVTVSS
VL: DIQMTQSPSSLSASVGDRVTITCRASQGISSYLNWYQQKPGKAPKLLIYYASNLQNGVPSRFSGSGSGTDFTLTISSLQPEDFATYYCQQSWQIKLKFGGGTKVEIK
notes: also called antibody 975
B5: C1.2G-43 (antibody, human IgG4, V domains shown)
VH: EVQLLESGGGLVQPGGSLRLSCAASGFTFSLYWMGWVRQAPGKGLEWVSSISSSGGVTPYADSVKGRFTISRDNSKNTLYLQMNSLRAEDTAVYYCAKLGELGQFMRWGQGTLVTVSS
VL: DIQMTQSPSSLSASVGDRVTITCRASQGISSYLNWYQQKPGKAPKLLIYYASNLQNGVPSRFSGSGSGTDFTLTISSLQPEDFATYYCQQSIGYPGSFGGGTKVEIK
notes: also called antibody 43
B6: C1.2G-973 (antibody, human IgG4, V domains shown)
VH: EVQLLESGGGLVQPGGSLRLSCAASGFTFSLYWMGWVRQAPGKGLEWVSSISSSGGVTPYADSVKGRFTISRDNSKNTLYLQMNSLRAEDTAVYYCAKLGELGQMVYWGQGTLVTVSS
VL: DIQMTQSPSSLSASVGDRVTITCRASQGISSYLNWYQQKPGKAPKLLIYYASNLQNGVPSRFSGSGSGTDFTLTISSLQPEDFATYYCQQSFKYPMTFGGGTKVEIK
notes: also called antibody 973
B7: C1.2G-996 (antibody, human IgG4, V domains shown)
VH: EVQLLESGGGLVQPGGSLRLSCAASGFTFSLYWMGWVRQAPGKGLEWVSSISSSGGVTPYADSVKGRFTISRDNSKNTLYLQMNSLRAEDTAVYYCAKLGELGQYMGWGQGTLVTVSS
VL: DIQMTQSPSSLSASVGDRVTITCRASQGISSYLNWYQQKPGKAPKLLIYYASNLQNGVPSRFSGSGSGTDFTLTISSLQPEDFATYYCQQSMWMPIFFGGGTKVEIK
notes: also called antibody 996
B8: C1.2G-999 (antibody, human IgG4, V domains shown)
VH: EVQLLESGGGLVQPGGSLRLSCAASGFTFSLYWMGWVRQAPGKGLEWVSSISSSGGVTPYADSVKGRFTISRDNSKNTLYLQMNSLRAEDTAVYYCAKLGELGMFHKWGQGTLVTVSS
VL: DIQMTQSPSSLSASVGDRVTITCRASQGISSYLNWYQQKPGKAPKLLIYYASNLQNGVPSRFSGSGSGTDFTLTISSLQPEDFATYYCQQSWEYAMFFGGGTKVEIK
notes: also called antibody 999
B9: C1.2G-984 (antibody, human IgG4, V domains shown)
VH: EVQLLESGGGLVQPGGSLRLSCAASGFTFSLYWMGWVRQAPGKGLEWVSSISSSGGVTPYADSVKGRFTISRDNSKNTLYLQMNSLRAEDTAVYYCAKLGELGMMQSWGQGTLVTVSS
VL: DIQMTQSPSSLSASVGDRVTITCRASQGISSYLNWYQQKPGKAPKLLIYYASNLQNGVPSRFSGSGSGTDFTLTISSLQPEDFATYYCQQSIEYPAHFGGGTKVEIK
notes: also called antibody 984
B10: C1.2G-977 (antibody, human IgG4, V domains shown)
VH: EVQLLESGGGLVQPGGSLRLSCAASGFTFSLYWMGWVRQAPGKGLEWVSSISSSGGVTPYADSVKGRFTISRDNSKNTLYLQMNSLRAEDTAVYYCAKLGELGEIREWGQGTLVTVSS
VL: DIQMTQSPSSLSASVGDRVTITCRASQGISSYLNWYQQKPGKAPKLLIYYASNLQNGVPSRFSGSGSGTDFTLTISSLQPEDFATYYCQQSWVYHLPFGGGTKVEIK
notes: also called antibody 977
B11: C1.2G-814 (antibody, human IgG4, V domains shown)
VH: EVQLLESGGGLVQPGGSLRLSCAASGFTFSLYWMGWVRQAPGKGLEWVSSISSSGGVTPYADSVKGRFTISRDNSKNTLYLQMNSLRAEDTAVYYCAKLGELGWFDPWGQGTLVTVSS
VL: DIQMTQSPSSLSASVGDRVTITCRASQGISSYLNWYQQKPGKAPKLLIYYASNLQNGVPSRFSGSGSGTDFTLTISSLQPEDFATYYCSQSMEYPLTFGGGTKVEIK
notes: HCDR3 wt (VH of C1.2G); also called antibody 814
B12: C1.2G-852 (antibody, human IgG4, V domains shown)
VH: EVQLLESGGGLVQPGGSLRLSCAASGFTFSLYWMGWVRQAPGKGLEWVSSISSSGGVTPYADSVKGRFTISRDNSKNTLYLQMNSLRAEDTAVYYCAKLGELGHSLAWGQGTLVTVSS
VL: DIQMTQSPSSLSASVGDRVTITCRASQGISSYLNWYQQKPGKAPKLLIYYASNLQNGVPSRFSGSGSGTDFTLTISSLQPEDFATYYCQQSYSTPLTFGGGTKVEIK
notes: LCDR3 wt (VL of C1.2G); also called antibody 852
B13: C1.2G-870 (antibody, human IgG4, V domains shown)
VH: EVQLLESGGGLVQPGGSLRLSCAASGFTFSLYWMGWVRQAPGKGLEWVSSISSSGGVTPYADSVKGRFTISRDNSKNTLYLQMNSLRAEDTAVYYCAKLGELGWFDPWGQGTLVTVSS
VL: DIQMTQSPSSLSASVGDRVTITCRASQGISSYLNWYQQKPGKAPKLLIYYASNLQNGVPSRFSGSGSGTDFTLTISSLQPEDFATYYCQQSWMYHKIFGGGTKVEIK
notes: HCDR3 wt (VH of C1.2G); also called antibody 870
B14: C1.2G-877 (antibody, human IgG4, V domains shown)
VH: EVQLLESGGGLVQPGGSLRLSCAASGFTFSLYWMGWVRQAPGKGLEWVSSISSSGGVTPYADSVKGRFTISRDNSKNTLYLQMNSLRAEDTAVYYCAKLGELGWFDPWGQGTLVTVSS
VL: DIQMTQSPSSLSASVGDRVTITCRASQGISSYLNWYQQKPGKAPKLLIYYASNLQNGVPSRFSGSGSGTDFTLTISSLQPEDFATYYCQQSFRYPFYFGGGTKVEIK
notes: HCDR3 wt (VH of C1.2G); also called antibody 877
B15: C1.2G-75 (antibody, human IgG4, V domains shown)
VH: EVQLLESGGGLVQPGGSLRLSCAASGFTFSLYWMGWVRQAPGKGLEWVSSISSSGGVTPYADSVKGRFTISRDNSKNTLYLQMNSLRAEDTAVYYCAKLGELGWFDPWGQGTLVTVSS
VL: DIQMTQSPSSLSASVGDRVTITCRASQGISSYLNWYQQKPGKAPKLLIYYASNLQNGVPSRFSGSGSGTDFTLTISSLQPEDFATYYCEESMNYPLTFGGGTKVEIK
notes: HCDR3 wt (VH of C1.2G); also called antibody 75
B16: C1.2G-94 (antibody, human IgG4, V domains shown)
VH: EVQLLESGGGLVQPGGSLRLSCAASGFTFSLYWMGWVRQAPGKGLEWVSSISSSGGVTPYADSVKGRFTISRDNSKNTLYLQMNSLRAEDTAVYYCAKLGELGWFDPWGQGTLVTVSS
VL: DIQMTQSPSSLSASVGDRVTITCRASQGISSYLNWYQQKPGKAPKLLIYYASNLQNGVPSRFSGSGSGTDFTLTISSLQPEDFATYYCQQSWVYPAWFGGGTKVEIK
notes: HCDR3 wt (VH of C1.2G); also called antibody 94

One test deals with T1, human G-CSFR expressed on cells. Nature of the test: cell-based or functional assay.
Consider B1, for which the “IC50 (nM), inhibition of G-CSF-mediated proliferation of BaF3 cells” value (“IC50 (nM), inhibition” for short) came out at 0.39 nM.

As to B2, the “IC50 (nM), inhibition” value is 0.22 nM.

As to B3, the “IC50 (nM), inhibition” value turned out to be 0.26 nM.

A further test concerns the target T2, soluble hG-CSFR: amino acids 25-335 of …. The experiment in a line: SPR (Biacore), mAb captured by anti-human IgG, soluble hG-CSFR injected. On the procedure: Soluble hG-CSFR was injected for 5 minutes and dissociation was monitored for 30 minutes. Responses from a reference flow cell (in which mAb was not captured, but otherwise treated identically), were subtracted. The responses from a blank injection were then subtracted from the resultant sensorgrams.
The final corrected responses were fitted using non-linear regression to a model describing 1:1 kinetics, including a term for mass transport limitation. The Rmax value was fitted locally, to account for slight deviations in the level of mAb captured. Association rate (ka), dissociation rate (kd) and equilibrium dissociation constant (KD) were determined.
(In general: SPR reads the build-up and loss of mass on a sensor chip optically.)
As a reminder, the Kd is the equilibrium constant for the complex coming apart. Molecule B1 had a Kd of 0.0733 nM.

For B4, the Kd was determined as 0.209 nM.

Regarding B5, the Kd turned out to be 0.336 nM.

In turn, B6 registered a Kd of 0.23 nM.

B7 had a Kd of 0.336 nM.

As for B8, the Kd stood at 0.356 nM.

Take B9: the Kd amounted to 0.25 nM.

For the molecule B10, the Kd is 0.246 nM.

B11 displayed a Kd of 0.221 nM.

For B12, the affinity, expressed as Kd, was 0.292 nM. This Kd and that of the molecule before are within 1.5-fold of each other.

Molecule B13 registered a Kd of 0.367 nM.

The molecule B14 gave a Kd of 0.508 nM.

The molecule B2 showed a Kd of 0.0993 nM.

In the case of B3, the Kd was 0.161 nM. This Kd is about 1.6-fold higher than that of the molecule before.

B15 gave a Kd of 0.211 nM.

For B16, the affinity, expressed as Kd, was 0.189 nM.
